Assay results from article PMC6686729, “RGD conjugated cell uptake off to on responsive NIR-AZA fluorophores: applications toward intraoperative fluorescence guided surgery” (Chemical Science, 2019).

Experiments:
[1] = pH titration of fluorescence intensity, sigmoidal plot fit (pKa); format: physicochemical
Source text: In order to display the responsive nature and full emissive potential of 2 and 3, their DMEM solutions were sequentially acidified (Fig. 4a and b). This caused a successive increase in emission intensity as acidity increased, with a maximum intensity reached at approximately pH 4. […] While it is recognized that the extracellular matrix of a solid tumour can be more acidic than normal tissue, intracellular organelles such as late endosomes and lysosomes are also acidic ranging between pH 4.5 and 5.5.[27] Encouragingly, the measured fluorescence enhancement factor (FEF) for 2 and 3 between pH 7.2 and that of 4.5 (as found in lysosomes) was 23 and 18 respectively (Fig. 4c). […]
Fig. 4 Responsive emission characteristics of 2 and 3 (5 μM) in DMEM/10% FBS solutions containing TX100. (a) Fluorescence spectra of 2 at pH ranging from 8.0 (black) to 2.0 (red); inset sigmoidal plot fit of integrated fluorescence intensity versus pH. (b) Fluorescence spectra of 3 at pH ranging from 8.0 (black) to 2.0 (red); inset sigmoidal plot fit of integrated fluorescence intensity versus pH. […]
Fig. S1. Absorption and fluorescence pH titration of 1
Fig. S1 Absorbance (left) and fluorescence (right) spectra of 1 (5 μM) in PBS buffer/TX-100 (4 mM) starting at pH 8 (grey line) to pH 2 (red line). Fluorescence excitation: 630 nm; range: 650- 900 nm; […]
(§1) Fig. S2. Absorption pH titration and fluorescence spectra of 2 […]

[2] = Photophysical properties (absorption, emission, FEF, quantum yield) in DMEM/10% FBS; format: physicochemical
Source text: The photophysical properties of the bio-responsive fluorophores 2 and 3 and the always-on control 10 were studied in solutions of Dulbecco's modified eagle's cell medium (DMEM) containing 10% fetal bovine serum (FBS). Absorption and emission wavelengths are listed in Table 1 and are, as would be expected for the NIR-AZA class, in the 690–730 nm range. At pH 7.4 fluorescence intensity of always-on10 was 17- and 15-fold greater than 2 and 3 respectively (Table 1). This illustrates both the emissive potential of the peptide conjugates and the ability to quench the bio-responsive derivatives in relevant biological media (Table 1, spectra and inset). […]
as §1
Fig. S2 Absorbance (left) spectra of 2 (5 μM) in DMEM (10% FBS) /TX100 (4 mM) starting at pH 8 (grey line) to pH 3 (red line). Fluorescence (right) spectra of series dilution (3 µM, 1.8 µM, 1.3 µM, 0.5 µM) in DMEM (10% FBS) /TX100 (4 mM) at pH=3. Fluorescence excitation: 630 nm; range: 650- 900 nm; slit widths: 5/5. Inset: Integrated fluorescence intensity vs. Absorbance; calculated fluorescence quantum yield Φ = 0.16. […]
Fig. S3. Absorption pH titration and fluorescence spectra of 3 […]
Fig. S3 Absorbance (left) spectra of 3 (5 μM) in DMEM (10% FBS) /TX100 (4 mM) starting at pH 8 (grey line) to pH 3 (red line). Fluorescence (right) spectra of series dilution (3.5 µM, 2.6 µM, 1.3 µM, 0.8 µM) in DMEM (10% FBS) /TX100 (4 mM) at pH=3. Fluorescence excitation: 630 nm; range: 650- 900 nm; slit widths: 5/5. Inset: Integrated fluorescence intensity vs. Absorbance; calculated fluorescence quantum yield Φ = 0.18.
Fig. S4. Absorption and fluorescence spectra of 10 at pH 7.4, 6.6, 5.6 and 3.
Fig. S4 Absorbance (left) and fluorescence (right) spectra of 10 (5 μM) in DMEM (10% FBS) /TX100 (4 mM). Fluorescence excitation: 630 nm; range: 650- 900 nm; slit widths: 5/5.

[3] = system: MDA-MB 231 subcutaneous tumour; test: In vivo tumour fluorescence imaging, tumour-to-background ratio (TBR) over 96 h; set-up: species or system Balb/C nu/nu mice; conditions: 2 mg kg–1, n = 4 (n = 2 for 10)
Method: Each fluorophore was subjected to in vivo analysis using a standard dosing set at 2 mg kg^–1 delivered by i.v. tail vein injection. Post injection, images were acquired initially at regular intervals between 10 min and 9 h and thereafter less frequently at 24, 48 and 96 h. The method used for image analysis was consistent across all experiments with TBR values calculated by measuring tumour ROI fluorescence against an average of three equally sized background ROI regions, two of which were close to and one distant from the tumour (Fig. S11 ^†). […] As such, we adopted this value as a point of reference to compare result from different fluorophores and different time points for individual fluorophores. […]
All in vivo experiments were conducted in University College Dublin, Ireland in compliance with relevant laws, and their institutional guidelines for animal protocols and the guidelines issued b y the Ethical Committee of University College Dublin and under license from the Health Products Regulatory Authority (HPRA), Dublin, Ireland which approved the experiments.
All in vivo work was carried out in the biomedical facility, University College Dublin (UCD) . MDA-MB-231, a human breast adenocarcinoma cell line, was obtained from Caliper Life Sciences. Cells were maintained as a mono-layer culture in Minimum Essential Medium containing 10% (v/v) fetal bovine serum and supplemented with 1% (v/v) L–glutamine, 50 U/mL penicillin, […] streptomycin, 1% (v/v) sodium pyruvate and 1% (v/v) non-essential amino acids. All cells were maintained in 5% CO2 (v/v) and 21% O2 (v/v) at 37°C.
Balb/C nu/nu mice (Harlan) were housed in individually ventilated cages in temperature and humidity-controlled rooms with a 12 hours light dark cycle. 2-5 Million MDA-MB 231 cells in 100 μL of a DPBS:Matrigel (50:50) solution were injected subcutaneously behind the fore limb of the 5-week-old mice using a 25-g needle. Tumors reached an average diameter of 6 mm prior to imaging […]
images taken at early time points with less frequent imaging thereafter. Images were taken using the settings of excitation 675 nm (30 nm band pass filter) and emission 720 nm (20 nm band pass filter) narrow band pass filters and were analyzed using Living Image Software v4.7.2 (Caliper LS). The tumor-to-background ratio (TBR) was calculated by using the measured fluorescence signal in the ROIs of tumor target and average background. […]
The fluorescence intensity of the animal was measured and normalized to photons per second per centimeter squared per steradian per micro-Watt per centimeter squared [(p/sec/cm2/sr) /(μW/cm2)].
Mice were injected via tail vein (2 mg/kg) as follows; [n = 4 for 1 (3.7 nmol)], [n = 4 for 2 (13.2 nmol)], [n = 4 for 3 (10.5 nmol)], [n = 2 for 10 (10.1 nmol)], anesthetized, and imaged at various time points post injection. All fluorescence images were acquired with two second exposure (f/stop = 2).
Color scale was adjusted and kept same for each experiment to show good contrast of target tumor region to background over time. The fluorescence intensity was not affected by color scale adjusting. […]
For RGD competitive binding study, mice injected with 2 (13.2 nmol) with or without pre-injection with RDG 5 (89.5 nmol) and were imaged at 10 min interval for 3 hours, and then immediately euthanized by inhalation of carbon dioxide. For quantitative comparison, regions of interests (ROIs) […]

MDA-MB 231 cells = test: Live MDA-MB 231 cell NIR-fluorescence/DIC time-lapse imaging; format: cell-based, human; conditions: live MDA-MB 231 cells, 1–5 μM, 37 °C
Method: With the responsive nature of 2 and 3 established, the potential for translation of these constructs to real-time live cell imaging was investigated. In order to illustrate the imaging effect of the bio-responsive characteristics of 2 and 3 the always-on10 was also imaged as a positive control. For live MDA-MB 231 cell experiments, chamber slide seeded cells were placed in a widefield microscope surrounded by an incubator to maintain the temperature at 37 °C and CO2 at 5%, following which an imaging field of view containing viable cells was chosen. The cells were treated with either 2, 3 or 10 (1–5 μM) and time-lapse NIR-fluorescence and differential interference contrast (DIC) images were acquired over 120 min. […] As expected, the […] morphology of the cell line is distinguishable by its membrane filopodia projections which is characteristic of its metastatic invasive phenotype (Movie S1 ^†). After 60 min incubation, both cell membrane and intracellular vesicle staining of the cytoplasm could be observed, both of which persisted at 120 min (Fig. 5b and c). […]
Fluorescence and DIC images were acquired on an Olympus IX73 epi-fluorescent microscope fitted with an Andor iXon Ultra 888 EMCCD and controlled by MetaMorph (v7.8). Fluorescence illumination was provided by a Lumencor Spectra X light engine containing a solid-state light source. […]

N=C(N)NCCC[C@@H]1NC(=O)[C@H](CCCCNC(=O)COCCOCCNC(=O)COCCOCCNC(=O)COc2ccc(-c3cc(-c4ccccc4)c4n3[B-](F)(F)[N+]3=C(c5ccc(O)c([N+](=O)[O-])c5)C=C(c5ccccc5)C3=N4)cc2)NC(=O)[C@@H](Cc2ccccc2)NC(=O)[C@H](CC(=O)O)NC(=O)CNC1=O [compound 2]
pKa [1]: 4.9

CC(=O)N[C@@H](CSC1CC(=O)N(CCC(=O)NCCOc2ccc(-c3cc(-c4ccccc4)c4n3[B-](F)(F)[N+]3=C(c5ccc(O)c([N+](=O)[O-])c5)C=C(c5ccccc5)C3=N4)cc2)C1=O)C(=O)NCCCC[C@@H]1NC(=O)[C@H](CC(=O)O)NC(=O)CNC(=O)[C@H](CCCNC(=N)N)NC(=O)[C@@H](NC(C)=O)CSSC[C@@H](C(N)=O)NC(=O)[C@H](CC(=O)O)NC(=O)[C@@H]2CCCN2C(=O)CNC1=O (stereo partly shown) [compound 3]
pKa [1]: 4.9

cCRGDKGPDC (disulfide) [compound 10, iRGD conjugated always-on NIR-AZA control with alkylsulfonic acid group, from fluorochrome 9 and peptide 8]
absorption or emission spectral changes between pH 7.2 and 4.5 ([2]; 5 μM in DMEM (10% FBS)/TX100 (4 mM)): no absorption or emission spectral changes | λ max flu (nm) ([2]; DMEM/10% FBS with 4 mM TX-100, 5 μM): 733 nm | FEF pH 7.4/4.5 (fluorescence enhancement factor) ([2]; DMEM/10% FBS with 4 mM TX-100, 5 μM, pH 7.4 vs 4.5): 1.0 | λ max abs (nm) pH 4.5 ([2]; DMEM/10% FBS with 4 mM TX-100, pH 4.5): 703 nm | λ max abs (nm) pH 7.2 ([2]; DMEM/10% FBS with 4 mM TX-100, pH 7.2): 705 nm | fluorescence intensity of always-on 10 relative to 2 ([2]; pH 7.4, DMEM/10% FBS, 5 μM): 17 fold | fluorescence intensity of always-on 10 relative to 3 ([2]; pH 7.4, DMEM/10% FBS, 5 μM): 15 fold | TBR ([3]; 10 to 60 min (first 60 min) post i.v. tail vein injection): below 1.3 | TBR ([3]; 3 h post i.v. injection): 1.5 | TBR ([3]; 6 h post i.v. injection): 1.9 | TBR ([3]; 24 h post i.v. injection): above 2 | TBR ([3]; 48 h post i.v. injection): 2 | cell staining pattern over 120 min (MDA-MB 231 cells; 5% CO2, time-lapse over 120 min): first showed plasma membrane before internal organelle staining | cell staining in the first 15 min of incubation (MDA-MB 231 cells; 5% CO2, widefield NIR-fluorescence and DIC): fluorescence specific to the plasma membrane
